Here are results for 34 variants from the RNAGym collection of RNA variant scans (doi:10.1093/nar/gkz1192).

B1: CPEB3 Ribozyme (parent)
chain: UAACAGGGGGCCACAGCAGAAGCGUUCACGUCGCAGCCCCUGUCAGAUUCUGGUGAAUCUGCGAAUUCUGCUGUAUAUCUC

Variants of B1 are the subject of this data set. The data set can be described thus: self-cleavage, relative activity (ratio to wild type); higher = more cleavage; in vitro, sequencing. Summed up: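 Relative activity was defined as the cleaved/total read fraction for a variant divided by the same fraction for the unmutated ribozyme. CPEB3 self-cleaving ribozyme libraries were made by rounds of error-prone PCR, barcoded, and transcribed in vitro with T7 RNA polymerase for 5 hours at 37°C, and cleavage ran through transcription plus a 15 min DNase I step before EDTA. Illumina sequencing of template-switched reverse transcripts gave the reads, and DNA sequencing mapped the barcodes. Averages come from three batches, using variants with at least 5 reads.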
In the case of UAACAGGGGGCCACAGCAGAAGCGUACACGUCGCAGCCCCUGUCAGAUUCUGGUGAAUCAGCGAAUUCUGCUGUAUAUCUC, the self-cleavage is 0.52.
With UAACACGGGGCCACAGCAGAAGCGUUUACGUCGCAGCCCCUGUCAGAUUCUGGUGAAUCUGCGAAUUCUGCUGUAUAUCUC the figure was 0.33; with UAACAGGGGGCCGCAGCAGAAGCGUUCACGUCGCAGCCCCUGUCAGAUUCUGGUGAAUCGGCGAAUUCUGCUGUAUAUCUC, 0.32; with CAACAGGGGGCCACAGCAGAAGCGUUCACGUCGCAGCCCCGGUCAGAUUCUGGUGAAUCUGCGAAUUCUGCUGUAUAUCUC, 0.53.
With UAACAGGGGGCCACCGCAGAAGCGUUCACGUCGCAGCCCCUGUCCGAUUCUGGUGAAUCUGCGAAUUCUGCUGUAUAUCUC the figure was 0.37; with UAACAGGGGGACACAGCAGGAGCGUUCACGUCGCAGCCCCUGUCAGAUUCUGGUGAAUCUGCGAAUUCUGCUGUAUAUCUC, 0.21; with UAACAGGGGGCCACAGCAGAAGCGUUCACGUCGCAGCCCCUGUCCGAUUCUGGUGAAUCUGCGAAUUCCGCUGUAUAUCUC, 0.27.
In the case of UAACAGGGGGCCACAGCAGAAGCGUUCACGUCGCAGCCCCAGUCAGAUUCCGGUGAAUCUGCGAAUUCUGCUGUAUAUCUC, the self-cleavage amounted to 0.31.
The same measure for UAUCAGGGGGCCACAGCAGAAGCGUUCACGUCGCAGCCCCUGUCUGAUUCUGGUGAAUCUGCGAAUUCUGCUGUAUAUCUC: 0.73.
With UAACAUGGGGCUACAGCAGAAGCGUUCACGUCGCAGCCCCUGUCAGAUUCUGGUGAAUCUGCGAAUUCUGCUGUAUAUCUC the figure was 0.19; with UAACAGGGGGCCACAGCAGAAGCGUUCACGUCGCAGCCCCCGUCAGAUUCUGGUGAAUCUGCCAAUUCUGCUGUAUAUCUC, 1.06.
With UAACAGGGGGCCACAGCAGAAGCCUUCACGUCGCAGCCCCUGUCAGAUUCUGGUGAAUCUGCGGAUUCUGCUGUAUAUCUC the figure was 0.45; with UAACAGGGGGCCACAGCAGAAGCGUUCACGUCGCAGCCCCUGUCAGACUCUGGUGAAUCGGCGAAUUCUGCUGUAUAUCUC, 0.33.
As for UAACAGGGGGCCACAGCAGAAGCGUUCACGACGCAGCCCCUGUCAGAUUCUGGUGAAUCUGCGAAUUCUGCUAUAUAUCUC, the self-cleavage came to 1.04.
With UAACCGGGGGCCACAGCAGAAGCGUUCACGUCGCAGCCCCUGUCAGAUUCUGGUGAAUCUGCGAAUUCGGCUGUAUAUCUC the figure was 0.67.
Consider UAACAGGGGGCCACAGCAGAAGCGUUCACGUCGCAGCCCCCGUCAGAUUCUGGUGAAUCUGCGAAUUCAGCUGUAUAUCUC, for which the self-cleavage came to 0.67.
With UAACGGGGGGCCACAGCAGAAGCGUUCACGCCGCAGCCCCUGUCAGAUUCUGGUGAAUCUGCGAAUUCUGCUGUAUAUCUC the figure was 0.48; with CAACAGGGGGCCAUAGCAGAAGCGUUCACGUCGCAGCCCCUGUCAGAUUCUGGUGAAUCUGCGAAUUCUGCUGUAUAUCUC, 1.07; with UAACAGGGGGCCACAGCAUGAGCGUUCACGUCGCAGCCCCUGUCAGAUUCUGGUGAAUCUGCGAAUUCUGCUGUAUAUCUC, 0.29.
The same measure for UAACAGGGGGCCACAGCAGAAGCGUUCACGUCGCGGCCCCUGUCAGACUCUGGUGAAUCUGCGAAUUCUGCUGUAUAUCUC: 1.21; for UAACAGGGGGCCACAGCAGAAGCGUUCACGUCGCAGCCCCUGUCAGAUUCUGGCGAAUCAGCGAAUUCUGCUGUAUAUCUC: 0.42.
For the variant UAACAGGGGGCCACAGCAGAAGCGUUCACGUCGCAGCCCCUGUCAGAUUCUGGUGAAUCUGCGAUUACUGCUGUAUAUCUC, the self-cleavage came out at 0.02.
With UAACAGGGGGCCACAGCAGAAGCGUUCACGUCGCAGCCCUUGUCAGAUUCUGGUAAAUCUGCGAAUUCUGCUGUAUAUCUC the figure was 0.67.
With UAACAGGGGGCCACAGCAGAAGCGUUCACGUCGCAGCCCCUGUCCGAUUCUGGUGAAUCUGCGAAUUCUGCUGGAUAUCUC the figure was 0.68; with UAACAGGGGGCCACAGCAGAGGCUUUCACGUCGCAGCCCCUGUCAGAUUCUGGUGAAUCUGCGAAUUCUGCUGUAUAUCUC, 0.44.
With UAACAGGGGGCCACAGCAGAAGCGUUCACGUCACAGCCCCUGUCAGAUUCUGGUGAAUCUGCGAAUUCUGCCGUAUAUCUC the figure was 0.26; with UAACAGGGGGCCACAGCAGAAGCGCUCACGUCGCAGCCCCUGUCAGAUUCUGGUGAAUCUGCGGAUUCUGCUGUAUAUCUC, 0.3.
For the variant UAACAGGGGGCCACAGCAGAAGCGUUCACGUCGCUGCCCCUGUCAGAUUCUGGUGAGUCUGCGAAUUCUGCUGUAUAUCUC, the self-cleavage worked out at 0.47.
With UAACAAGGGGCCACAGCAGAAGCGUUCACGUCGCAGCCCCUGACAGAUUCUGGUGAAUCUGCGAAUUCUGCUGUAUAUCUC the figure was 0.49.
The same measure for UAACAGGGGGCCACUGCAGAAGCGUUCACGUCGCAGCCCCUGUCAGAUUCUGGUGAAUCUGCGAAUUCUGCUGUAUACCUC: 0.7; for UAACAGGGGGCCACAGCAGAAGCGUUCACGUCGCAGCCCCUGUCAGAUUCUGGUGAAUCUGCCAAUUCUGCAGUAUAUCUC: 0.4.
With UAACAGGGGGCCACAGCAGAAGCGUUCACGUCGCAGCCCCUGUCAGAUUCUGGUGAAUCUGGGGAUUCUGCUGUAUAUCUC the figure was 0.22.
As to UAACAGGGGGCCACAGCAGUAGCGUUCACGUCGCAGCCCCUGUCAGAUUCUGGUGAUUCUGCGAAUUCUGCUGUAUAUCUC, the self-cleavage stood at 0.58.
The same measure for UUACAGGGGGCCACAGCAGAAGCGUUCACGUCGCAGCCCCUGUCAGAUUCUGGUGAAUCUGCGAAUUCUGCUGUAUAUCCC: 1.09.
